Results on one substance are retold here after US20250313605A1.

The experiment addresses human GIP receptor (human) (UniProt P48546). The experiment in a line: cell-based or functional assay.

Chain of human GIP receptor (human) (P48546 22-466): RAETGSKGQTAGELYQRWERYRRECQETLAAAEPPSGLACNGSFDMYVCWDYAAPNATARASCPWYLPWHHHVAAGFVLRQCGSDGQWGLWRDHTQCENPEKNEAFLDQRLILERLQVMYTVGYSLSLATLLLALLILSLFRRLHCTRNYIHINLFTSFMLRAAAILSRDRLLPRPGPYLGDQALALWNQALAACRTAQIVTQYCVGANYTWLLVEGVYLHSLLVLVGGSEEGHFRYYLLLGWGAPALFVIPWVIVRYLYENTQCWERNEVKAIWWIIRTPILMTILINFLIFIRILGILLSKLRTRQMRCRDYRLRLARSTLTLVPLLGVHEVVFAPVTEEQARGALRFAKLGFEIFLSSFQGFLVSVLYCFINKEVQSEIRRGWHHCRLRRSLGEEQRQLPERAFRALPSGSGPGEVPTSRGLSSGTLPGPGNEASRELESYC

Turning to “human GIP (1-42)NH2 (from UniProt P09681 52-93) (ligand)”, the cAMP EC50 (0.1% casein) was determined as 0.154 nM; the cAMP EC50 (FBS and BSA present) was 0.133 nM.
